B1: CPEB3 Ribozyme (parent)
chain: GGGGGCCACAGCAGAAGCGUUCACGUCGCGGCCCCUGUCAGAUUCUGGUGAAUCUGCGAAUUCUGCUGU

In this data set the parent is B1. The data set is described as follows: self-cleavage, relative activity (ratio to wild type); higher = more cleavage; co-transcriptional.
For the variant GGGAGCCACAGCAGAAGCGUUCACGUCGCGGCCCCUGUCAGAUUCUGUUGAAUCUGCGAAUUCUGCUGU, the self-cleavage was 0.919. The result for GGGAGCCACAGCAGAAGCGUUCACGUCGCGGCCCCUGUCAGAUUCUGCUGAAUCUGCGAAUUCUGCUGU reads 0.802; that for GGGAGCCACAGCAGAAGCGUUCACGUCGCGGCCCCAGUCAGAUUCUGGUGAAUCUGCGAAUUCUGCUGU, 0.13; that for GGGAGCCACAGCAGAAGCGUUCACGGCGCGGCCCCUGUCAGAUUCUGGUGAAUCUGCGAAUUCUGCUGU, 0.504.

As for GGGAGCCACAGCAGAAGCGUUCACGACGCGGCCCCUGUCAGAUUCUGGUGAAUCUGCGAAUUCUGCUGU, the self-cleavage worked out at 0.604. The result for GGGAGCCACAGCAGAAGCGUUCACGUCGCGGCCCCUGUCAGAUUCUGGUGAAUCUGCGAAUUGUGCUGU reads 0.521; that for GGGAGCCACAGCAGAAGCGUUCACGUCGCGGCCCCUGUCAGAUUCUGGUGAAUCCGCGAAUUCUGCUGU, 0.351. Regarding GGGAGCCACAGCAGAAGCGUUCACGUCGCGGCCCCUGUCAGAUUCUGGUGAAUCAGCGAAUUCUGCUGU, the self-cleavage was found to be 0.636. In the case of GGGAGCCACAGCAGAAGCGUUCACGUCGCGGCCCCUGUCAGAUUCUUGUGAAUCUGCGAAUUCUGCUGU, the self-cleavage worked out at 0.899.

Consider GGGAGCCACAGCAGAAGCGUUCACGUCACGGCCCCUGUCAGAUUCUGGUGAAUCUGCGAAUUCUGCUGU, for which the self-cleavage amounted to 0.117. The result for GGGAGCCACAGCAGAAGCGUUCACGUCGCGGCCCCUGUCAGAUUCGGGUGAAUCUGCGAAUUCUGCUGU reads 0.841; that for GGGAGCCACAGCAGAAGCGUUCACGUCGCGGCCCCUGUCAGAUUCAGGUGAAUCUGCGAAUUCUGCUGU, 0.899; that for GGGAGCCACAGCAGAAGCGUUCACGUCGCGACCCCUGUCAGAUUCUGGUGAAUCUGCGAAUUCUGCUGU, 0.227.

Turning to GGGAGCCACAGCAGAAGCGUUCACGUCGCGGCCCCUGUCAGAUUCUGGUGAAUCUGCCAAUUCUGCUGU, the self-cleavage is 0.701. As to GGGAGCCACAGCAGAAGCGUUCACGUCGCGGCCCCUGUCAGAUUCUGGAGAAUCUGCGAAUUCUGCUGU, the self-cleavage was 0.852.

Regarding GGGAGCCACAGCAGAAGCGUUCACGUCGCGGCCCCUGUCAGAUUCUGGUGAAUCUGCGAAUUCUGGUGU, the self-cleavage was 0.799. The result for GGGAGCCACAGCAGAAGCGUUCACGUCGCGGCCCCUGUCAGAUUCUGGUGAAUCUGCGAAUGCUGCUGU reads 0.419; that for GGGAGCCACAGCAGAAGCGUUCACGUCGCGGCCCCUGUCAGAUUCUGGUGAAUCUGCGAAUACUGCUGU, 0.601. Turning to GGGCGCCACAGCAGAAGCGUUCACGUCGCGGCCCCUGUCAGAUUCUGGUGAAUCUGCGAAUUCUGCUGU, the self-cleavage came to 0.69. As for GGGAGCCACAGCAGAAGCGUUCACCUCGCGGCCCCUGUCAGAUUCUGGUGAAUCUGCGAAUUCUGCUGU, the self-cleavage turned out to be 0.114. The result for GGGAGCCACAGCAGAAUCGUUCACGUCGCGGCCCCUGUCAGAUUCUGGUGAAUCUGCGAAUUCUGCUGU reads 0.145; that for GGGAGCCACAGCAGAAGCGUUCACGUCGCGGCCCCUGUCAGAUUCUGGUGAAACUGCGAAUUCUGCUGU, 0.602; that for GGGAGCCACAGCAGAAGCGUUCACGUCGCGGCCCCUGUCAGAUUCUGGUGAAGCUGCGAAUUCUGCUGU, 0.517. For GGGAGCCACAGCAGAAGCAUUCACGUCGCGGCCCCUGUCAGAUUCUGGUGAAUCUGCGAAUUCUGCUGU, the self-cleavage was 0.092.

GGGAUCCACAGCAGAAGCGUUCACGUCGCGGCCCCUGUCAGAUUCUGGUGAAUCUGCGAAUUCUGCUGU: the self-cleavage amounted to 0.0889. In the case of GGGAGCCACAGCAGAAGCGUUCACGUCGCGGCCCCUGUCAUAUUCUGGUGAAUCUGCGAAUUCUGCUGU, the self-cleavage was 0.525. In the case of GGGAGCCACAGCAGAAGCGUUCACGUCGCGGCCCCUGUCACAUUCUGGUGAAUCUGCGAAUUCUGCUGU, the self-cleavage was 0.341.

As to GGGAGCCACAGCAAAAGCGUUCACGUCGCGGCCCCUGUCAGAUUCUGGUGAAUCUGCGAAUUCUGCUGU, the self-cleavage came out at 0.401. The result for GGGAGCCACAGCAGAAGCGUUCACGUCGCGGCCCCUGUCAGAUUCUGGUGAAUCUGCGAAUUCUGCUAU reads 0.999. GGGAGCCACAGCAGAAGCGUUCACGUCGCGGCCCCUGUCAGAUUCUGGUGAAUCUGCGAAUUCUGCUCU: the self-cleavage is 0.959. With GGGAGCCACAGCAGAAGCGUUCACGUCGCGGCCCCUGUCAGAUUCUGGUGAAUCUGCGAAUUCAGCUGU, the self-cleavage was 0.7. In the case of GGGAGCCACAGCAGAAGCGUUCACGUCGCGGCCCCUGUCAGAUUCUGGUGAAUCUGCGAAUUCCGCUGU, the self-cleavage stood at 0.696. The value for GGGAGCCACAGCAGAAGCGUUCACGUCGCGGCCCCUGUCAGAUUCUGGUGAAUCUGCGAAUUCGGCUGU was 0.672; that for GGGAGCCACAGCAGAAGCGCUCACGUCGCGGCCCCUGUCAGAUUCUGGUGAAUCUGCGAAUUCUGCUGU was 0.128; that for GGGAGCCACAGCAGAAGCGUUCACGUCGCGGCCCCUGUCAGAUUCUGGUGAAUCUGCGAACUCUGCUGU was 0.433.

With GGGAGCCACAGCAGAAGCGUUCACGUCGCGGCCCCUGUCAGAUUCUGGUGAAUCUACGAAUUCUGCUGU, the self-cleavage amounted to 0.604. For the variant GGGAGCCACAGCAGAAGCGUUCACGUCGCGGCCCCUGCCAGAUUCUGGUGAAUCUGCGAAUUCUGCUGU, the self-cleavage came out at 0.699. The result for GGGAGCCACAGCAGAAGCGUACACGUCGCGGCCCCUGUCAGAUUCUGGUGAAUCUGCGAAUUCUGCUGU reads 0.793; that for GGGAGCCACAGCAGAAGCGUUCACGUCGCGGCCCCUGUCAGAUUCUGGUGAAUCUGCGAAUUCUGCUGC, 1.04.
